# Measurements published in patent EP4683932A2.
# Biological target: Pak2 kinase (UniProt Q13177)
# Assay: cell-based or functional assay
# UniProt Q13177, sequence (Q13177 2-524 limits assumed): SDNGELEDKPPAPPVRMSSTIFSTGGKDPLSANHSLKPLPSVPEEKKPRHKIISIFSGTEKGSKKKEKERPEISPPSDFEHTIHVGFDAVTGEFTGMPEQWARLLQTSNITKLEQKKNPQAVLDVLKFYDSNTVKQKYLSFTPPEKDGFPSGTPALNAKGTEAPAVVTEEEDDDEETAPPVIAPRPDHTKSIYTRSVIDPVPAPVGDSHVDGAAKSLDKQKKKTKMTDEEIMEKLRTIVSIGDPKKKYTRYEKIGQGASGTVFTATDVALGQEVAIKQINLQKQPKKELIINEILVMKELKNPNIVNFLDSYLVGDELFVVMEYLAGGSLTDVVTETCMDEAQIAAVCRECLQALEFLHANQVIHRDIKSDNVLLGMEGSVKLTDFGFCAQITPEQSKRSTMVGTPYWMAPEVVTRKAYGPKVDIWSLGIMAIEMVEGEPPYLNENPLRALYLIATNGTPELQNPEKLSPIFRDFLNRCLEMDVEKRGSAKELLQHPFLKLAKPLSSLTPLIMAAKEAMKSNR
substance,measurement,value
"HIV-1 Nef protein, wild type (Nef from HIV-1 Clade B)","phosphorylation of the Pak2 kinase at S55, quantitative phosphoproteomics of NALM6-stimulated CAR T cells, Nef-WT compared to NefAxxA",2.15 log2Fc
same,"phosphorylation of the Pak2 kinase at S152, quantitative phosphoproteomics of NALM6-stimulated CAR T cells, Nef-WT compared to NefAxxA",1.17 log2Fc
